Reference: US20210253725A1 (BIONTECH, published 2021)

T1: CD27 protein (His-tagged, Sino Biological Inc. 10039-H08B1) (human, UniProt P26842 20-192)
T1 construct: bought; coated onto ELISA plates; also called human CD27; recombinant protein; not shown: His tag
T1 sequence (looked up): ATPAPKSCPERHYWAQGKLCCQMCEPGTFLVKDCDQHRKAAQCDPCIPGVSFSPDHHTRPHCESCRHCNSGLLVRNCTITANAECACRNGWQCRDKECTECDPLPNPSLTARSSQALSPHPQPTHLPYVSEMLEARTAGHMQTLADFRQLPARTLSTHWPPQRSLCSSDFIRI

T2: CD27 expressed on the cell surface (HT1080_CD27 cells) (human, UniProt P26842 20-260)
T2 sequence (looked up): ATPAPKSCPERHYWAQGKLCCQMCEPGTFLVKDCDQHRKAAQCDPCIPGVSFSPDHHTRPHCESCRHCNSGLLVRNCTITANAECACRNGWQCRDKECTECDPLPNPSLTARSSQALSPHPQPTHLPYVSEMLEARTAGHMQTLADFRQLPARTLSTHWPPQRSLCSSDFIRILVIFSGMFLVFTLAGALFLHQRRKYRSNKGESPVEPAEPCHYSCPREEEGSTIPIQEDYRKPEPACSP

B1: P018.S.10.A.C03 (antibody, V domains shown)
VH: QSVEESGGRLVTPGTPLTLTCTVSGFSLSSYYMIWVRQAPGKGLEWIGIINTSGGAYYATWANGRFTISRTSTTVDLKITSPTTEDTATYFCARYLDNGFYCPDLWGQGTLVIVSS
VL: DIVMTQTPSSVSEAVGGTVTIKCQASEDIYTLLAWYQQKPGQPPKLLIYKASILASGVSSRFKGGGSGADFTLTISDLESADAATYYCQSTYYGAAYIGAFGGGTEVVVK
notes: V regions on human Ig constant parts; also called AB27_172
B2: P018.S.03.A.G03 (antibody, V domains shown)
VH: QEHLEESGGGLVQPEGSLTLTCKASGFDFSSNYYMSWVRQAPGTGLEWIACIDSGSSGSTWYASWVKGRFTISKTSSTTVTLQMTSLTDADTAAYFCVRDDVGSSYEYYFSLWGPGTLVTVSS
VL: DVVMTQTPASVSEPVGGTVTIKCQASQSIGSFLGWYQQKPGQPPKLLIYQASKLASGVPSRFKGSGSGTEYTLTISDLESADAAAYYCQTYFGSDSYVFGGGTEVVVK
notes: V regions on human Ig constant parts; also called AB27_57
B3: P018.S.01.A.A04 (antibody, V domains shown)
VH: QSVEESGGRLVTPGTPLTLTCTVSGFSLSRYWVSWVRQAPGKGLEAIGVIDNGDTAYYASWAKGRFTISKTSSITVDLKMTSLTTEDTATYFCTREGADHSGQDLWGQGTLVTVSS
VL: AAVLTQTPSPVSAAVGGTVTINCQASQSVISNNDLSWYQQKPGQPPKLLIYRASNLASGVPSRFEGSGSGTQFTLTISDLESEDAATYYCQGGYAGIVDRRPFGGGTEVVVK
notes: V regions on human Ig constant parts; also called AB27_1
B4: P018.S.03.A.D06 (antibody, V domains shown)
VH: QSLEESGGRLVTPGTPLTLTCTASGFSLSSYWMSWVRQAPGKGLEWIGYIYAGSGSAYYASWVKGRFTISKTSTTVDLKISSPTTEDTATYFCGRGNYDGYINVYDLWGPGTLVTVSS
VL: DVVMTQTPSSVEAAVGGTVTIKCQASQSIGSYLAWYQKKPGQPPKLLIYAAANLAAGVPSRFKGSGSGTDFTLTINDLESADAATYYCQNNNGAYGSAYVGAFGGGTEVVVK
notes: V regions on human Ig constant parts; also called AB27_51
B5: P018.S.03.A.D03 (antibody, V domains shown)
VH: QEQLVESGGGLVQPEGSLTLTCTASGFSFNNNYVMSWVRQAPGKGLEWIGTIYVVSGSTYYASWVNGRFSISKTSSTTVTLQMTSLTDADTATYFCARDQLYNSGYDFDLWGPGTLVIVSS
VL: AQVLTQTASPVSAAVGSTVTISCQSSQSVYNNNELSWYQQKPGQPPKLLIYQASKLASGVSSRFSGSESGTQFTLTISGVQSDDAATYYCQGTYYRSGLDNGFGGGTEVVVK
notes: V regions on human Ig constant parts; also called AB27_48
B6: P018.S.01.A.E05 (antibody, V domains shown)
VH: QEQLVESGGGLVQPEGSLTLTCTASGFSFSSRYYMCWVRQAPGKGLEWIACIAPDVSGSAYYATWAKGRITISETSSTTVTLRMTSLTAADTAIYFCARSVPGSLFYFQLWGPGTVVTVSS
VL: AAVLTQTPPSVSAAVGGTVTIKCQSSQSVYNKNEFSWYQQKPGQPPKLLIYDASTLASGVPSRFKGSGSGTQFTLTISDLESDDAATYYCQGSYYSSGSYTAFGGGTEVVVK
notes: V regions on human Ig constant parts; also called AB27_17
B7: P018.S.08.A.A03 (antibody, V domains shown)
VH: QSLEESGGRLVTPGTPLTLTCTASGFSLSSYGMIWVRQAPGKGLEWIGMIIDVTYTYYASWAKGRFTISKTSTTVDLKMTSLTTEDTATYFCARTPGYGIYAYGNLWGQGTLVTVSS
VL: AQVLTQTPSPVSAAVGGTVTISCQSSQSVYGNNWLAWYQQKPGQPPKLLIYYASTLASGVPSRFKGSGSGTQFTLTISEVQSDDAATYYCQGYYSSAAYVFGGGTEVVVK
notes: V regions on human Ig constant parts; also called AB27_136
B8: P018.S.03.A.C04 (antibody, V domains shown)
VH: QSVEESGGRLVTPGTPLTLTCTVSGVDLSRYAMSWVRQAPGEGLEWIGTIWYSGTTYYASWAKGRFTISKTSSTTVDLKMTSLTAADTATYFCARDPLYVGGNSGSDLWGPGTLVTVSS
VL: DVVMTQTPASVSAAVGGTVTINCQASQSIGSSLAWYQQKPGQRPKLLIYYASTLASGVPSRFSGSGSGTEFTLTISDLESADAATYYCQSNYGAASSSYGAFGGGTEVVVK
notes: V regions on human Ig constant parts; also called AB27_45
B9: P018.S.07.A.E05 (antibody, V domains shown)
VH: QSLEESGGRLVTPGGSLTLTCTVSGIDLSSYAMIWVRQAPGKGLEWIGYIYGGSGSTWYASWAKGRFTISKTSSTTVDLKMTSLTTEDTATYFCARAYDSGYIGNSFYIFDPWGPGTLVTVSS
VL: DIVMTQTPASVSATVGGTVTIKCQASQSISSRLAWYQQKPGQPPKLLIYSASTLASGVSSRFRGSGSGTEFTLTISDLESADGATYYCAGYGGLGITAFGGGTEVVVK
notes: V regions on human Ig constant parts; also called AB27_126
B10: P018.S.01.A.C04 (antibody, V domains shown)
VH: QSLEESGGGLVTPGGTLTLTCTASGSDISTYHMGWFRQAPGKGLEYIGFINTGGTTWYASWAKGRFTVSRTSTTVDLLMTSPTTEDTATYFCARYDAGHAFFDLWGPGTLVTVSS
VL: AVVMTQTASPVSAAVGGTVTIKCQASQSIGSSYFSWYQQKPGQPPKLLIYSASTLASGVSSRFKGSGSGTEYTLTISDLESADAATYYCQGYDGDTTTAFFAFGGGTEVVVE
notes: V regions on human Ig constant parts; also called AB27_8
B11: P018.S.06.A.A02 (antibody, V domains shown)
VH: QEQLVESGGGLVQPEGSLTLTCTSSGFSLNSNYYISWVRQAPGKGLEWIACIDAGSGSTWYASWVKGRFTISKTSSTTVTLQMTSLTAADTATYFCARDDIGTSYEYYFGLWGPGTLVTVSS
VL: DVVLTQTPASVSEPVGGTVTIKCQASQTISSYLAWYQQKSGQPPKLLIYSASTLASGVSSRFKGSGSGTEYTLTISDLESADAATYYCQTYYGSDSYVFGGGTEVVVK
notes: V regions on human Ig constant parts; also called AB27_95
B12: P018.S.06.A.H04 (antibody, V domains shown)
VH: QEKLEESGGGLVKPGGSLTLPCTASGFTLSSRYYMCWVRQAPGKGLEWIGCIYAGSLRTWYASWAKGRFTISKTSSTTVTLQMTSLTAADTATYFCARSPGVAASYPELWGPGTLVTVSS
VL: AQVLTQTPSSVAAAVGGTVSISCQSSQSVGNADNLAWYQQKPGQPPNLLIYYAASLASGVPSRFKGSGSGTQFTLTISDLESDDAATYYCGGGYYNSTDTFYTFGGGTEVVVK
notes: V regions on human Ig constant parts; also called AB27_111
B13: P018.S.06.A.C02 (antibody, V domains shown)
VH: QSVEESGGRLVTPGTPLTLTCIVSGIDLSSNAMSWVRQAPGKGLEWIGIIGFAGITYYANWAKGRFTISKTSTTVDLKITSPTTEDTATYFCARAYGDSDGLYNLWGQGTLVTVSS
VL: AQVLTQTASSVSAAVGGTVTISCQSSESVYNNNWLGWFQQKPGQPPKLLIYLASTLASGVPSRFKGSGSGTQFTLTISDLESDDAATYYCQGGYSGNIFAFGGGTEVVVN
notes: V regions on human Ig constant parts; also called AB27_100
B14: P018.S.02.A.A01 (antibody, V domains shown)
VH: QSVEESGGRLVTPGTPLTLTCTVSGIDLSRYAMGWVRQAPGKGLEYIGIISSSGSTYYASWIKGRFTISKTSTTVDLKITSPTTEDTATYFCARSPYASTSASAFNLWGPGTLVTVSS
VL: AFELTQTPSSVEAAVGGTVTIKCQASQSISSWLSWYQQKPGQPPKLLIYEASKLASGVPSRFKGSGSGTQFTLTISDLESADAATYYCQSYSSTTTNTFGGGTEVVVK
notes: V regions on human Ig constant parts; also called AB27_27

Tests used:
[1] = molecular target: T1, CD27 protein (His-tagged, Sino …); assay: ELISA on coated His-tagged CD27
[2] = molecular target: T2, CD27 expressed on the cell surface …; assay: cell-based or functional assay
[3] = molecular target: T2, CD27 expressed on the cell surface …; assay: cellular binding assay, HT1080_CD27 cells
Note: test concentration or dose not given here.

| Binder | ELISA [abs. corr.] [1] [abs. corr.] | IL-8, cross-linked by F(ab')2 fragment [abs. corr.] [2] [abs. corr.] | IL-8 [abs. corr.] [2] [abs. corr.] | Cellular binding assay [RFU] [3] [RFU] |
| --- | --- | --- | --- | --- |
| B1 | 3.21 | 1.56 | 0.079 | 360 |
| B2 | 3.21 | 1.58 | 0.546 | 292 |
| B3 | 3.24 | 1.03 | 0.236 | 315 |
| B4 | 3.19 | 1.05 | 0.245 | 360 |
| B5 | 3.22 | 1.05 | 0.281 | 320 |
| B6 | 3.22 | 1.33 | 0.209 | 420 |
| B7 | 3.21 | 1.64 | 0.276 | 342 |
| B8 | 3.52 | 1.48 | 0.394 | 337 |
| B9 | 3.2 | 1.15 | 0.055 | 317 |
| B10 | 3.24 | 1.08 | 0.383 | 368 |
| B11 | 3.23 | 1.81 | 0.737 | 366 |
| B12 | 3.23 | 1.69 | 0.173 | 331 |
| B13 | 3.23 | 1.61 | 0.519 | 283 |
| B14 | 3.23 | 1.62 | 0.4 | 350 |
